Assay [1] addresses T1, Human STEAP1 (human, UniProt Q9UHE8 1-339).
T1 construct: Endogenous on Ewing's sarcoma cell lines (TC32 and others) and prostate cancer cell lines; as STP1h transfected into HEK293 cells with a lentiviral vector (GFP part of the transgene); also called STP1h
Description: flow cytometry on TC32 cells after repeated washes in PBS with 2 mM EDTA. How it is done: Following binding of the primary antibody, cells were washed in PBS with 2 mM EDTA from 1 to 10 times. After each wash cells were stained with the secondary PE-conjugated goat anti-human IgG antibody and washed once with PBS for flow cytometry. Mean fluorescence intensity (MFI) was normalized to time 1 and depicted in FIG. 4B. While chimeric antibody dropped to below 50% after first wash, clones L1+H1, L1+H2, L1+H5 and L2+H2 remained above 50% through wash #8 and therefore scored as slow koff.
After initial staining (FIG. 4A), ten different clones, including the chimeric BsAb clone, were chosen for further study. To assess binding of these ten clones to TC32 cells, following incubation of the BsAbs, the cells were subjected to ten washes with PBS. An aliquot of the binding reaction after each wash was stained with a fluorochrome labelled anti-human secondary antibody. The extent of binding of the anti-STEAP1 BsAbs to TC32 cells was measured using flow cytometry.
In general terms: Flow cytometry measures light scatter and fluorescence of single cells or particles in a stream.

For assay [2], the target named is T1, Human STEAP1. Description: flow cytometry staining of TC32 cells with different doses.

T1 sequence (Q9UHE8 whole entry): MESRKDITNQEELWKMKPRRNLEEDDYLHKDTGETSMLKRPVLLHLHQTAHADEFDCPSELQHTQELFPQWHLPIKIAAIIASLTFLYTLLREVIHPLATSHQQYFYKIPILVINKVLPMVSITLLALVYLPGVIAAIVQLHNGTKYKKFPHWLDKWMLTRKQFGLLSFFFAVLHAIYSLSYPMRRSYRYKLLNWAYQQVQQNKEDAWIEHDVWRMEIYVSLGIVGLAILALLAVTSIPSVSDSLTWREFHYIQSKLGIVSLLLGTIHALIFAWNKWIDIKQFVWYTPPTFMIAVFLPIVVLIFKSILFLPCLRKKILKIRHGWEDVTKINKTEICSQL

B1: BC259 (VH-1+VL-1 BsAb variant) (bispecific antibody, V domains shown)
VH: QVQVQESGPGLVKPSQTLSLTCTVTGYSITSDYAWNWIRQPPGKGLEWMGYISNSGSTSYNPSLKSRITISRDTSKNQFSLKLSSVTAADTAVYYCARERNYDYDDYYYAMDYWGQGTTLTVSA
VL: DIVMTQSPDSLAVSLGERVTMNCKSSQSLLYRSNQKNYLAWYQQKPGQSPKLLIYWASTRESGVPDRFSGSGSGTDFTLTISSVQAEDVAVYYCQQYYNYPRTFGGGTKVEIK
notes: One of the 24 humanized X120 versions; light chain extended by (G4S)3 linker and huOKT3 anti-CD3 scFv); also called L1+H1
With B1, the “Mean fluorescence intensity (MFI) normalized to time 1, through wash #8” value with Human STEAP1 [1] was greater than 50%.

B2: humanized X120 clone L4+H2 (bispecific antibody, IgG1, V domains shown)
VH: DVQVQESGPGLVKPSQTLSLTCTVTGYSITSDYAWNWIRQPPGKGLEWMGYISNSGSTSYNPSLKSRITISRDTSKNQFSLKLSSVTAADTAVYYCARERNYDYDDYYYAMDYWGQGTTLTVSA
VL: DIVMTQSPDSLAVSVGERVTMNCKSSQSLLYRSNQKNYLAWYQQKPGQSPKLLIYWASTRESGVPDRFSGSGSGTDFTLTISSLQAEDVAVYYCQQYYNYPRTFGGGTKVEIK
notes: One of the 24 humanized X120 versions; light chain with (G4S)3 linker and huOKT3 scFv)
As to B2, the binding result in the assay with Human STEAP1 [2] is recorded as “binds”.

B3: humanized X120 clone L4+H1 (bispecific antibody, IgG1, V domains shown)
VH: QVQVQESGPGLVKPSQTLSLTCTVTGYSITSDYAWNWIRQPPGKGLEWMGYISNSGSTSYNPSLKSRITISRDTSKNQFSLKLSSVTAADTAVYYCARERNYDYDDYYYAMDYWGQGTTLTVSA
VL: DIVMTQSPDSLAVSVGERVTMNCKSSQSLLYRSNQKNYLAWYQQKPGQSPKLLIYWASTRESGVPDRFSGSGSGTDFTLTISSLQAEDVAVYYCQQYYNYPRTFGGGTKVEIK
notes: as for B2
Regarding B3, in the assay with Human STEAP1 [2], the binding result is reported as “binds”.

B4: BC260 (VH-2+VL-1 BsAb variant) (bispecific antibody, V domains shown)
VH: DVQVQESGPGLVKPSQTLSLTCTVTGYSITSDYAWNWIRQPPGKGLEWMGYISNSGSTSYNPSLKSRITISRDTSKNQFSLKLSSVTAADTAVYYCARERNYDYDDYYYAMDYWGQGTTLTVSA
VL: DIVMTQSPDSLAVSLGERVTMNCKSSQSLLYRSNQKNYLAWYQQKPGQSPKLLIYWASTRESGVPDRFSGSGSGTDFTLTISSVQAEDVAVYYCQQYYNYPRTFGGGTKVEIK
notes: One of the 24 humanized X120 versions; light chain extended by (G4S)3 linker and huOKT3 anti-CD3 scFv); also called L1+H2
Regarding B4, the “Mean fluorescence intensity (MFI) normalized to time 1, through wash #8” value in the assay with Human STEAP1 [1] was greater than 50%.

B5: humanized X120 clone L2+H1 (bispecific antibody, IgG1, V domains shown)
VH: QVQVQESGPGLVKPSQTLSLTCTVTGYSITSDYAWNWIRQPPGKGLEWMGYISNSGSTSYNPSLKSRITISRDTSKNQFSLKLSSVTAADTAVYYCARERNYDYDDYYYAMDYWGQGTTLTVSA
VL: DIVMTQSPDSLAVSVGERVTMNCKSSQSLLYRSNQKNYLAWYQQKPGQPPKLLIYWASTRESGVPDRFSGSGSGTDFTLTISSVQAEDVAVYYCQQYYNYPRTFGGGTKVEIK
notes: as for B2
B5: in the assay with Human STEAP1 [2], the binding result is given as “binds”.

The record behind these values is patent US20220348686A1 (Memorial Sloan Kettering, published 2022).
